Assay results taken from the emibetuzumab library of Makowski et al. (2022).

B1: VH:VL chains; a variant is named by its letters at X, in order (parent)
chain 1: QVQLVQSGAEVKKPGASVKVSCKASGYTFTDYXMHWVRQAPGQGLEWMGXVNPNXXXTTYNQKFEGRVTMTTDTSTSTAYMELRSLRSDDTAVYYCARXNXLDXWGQGTTVTVSS
chain 2: DIQMTQSPSSLSASVGDRVTITCSVSSSVSSIYLHWYQQKPGKAPKLLIYSTSNLASGVPSRFSGSGSGTDFTLTISSLQPEDFATYYCQVYSGYPLTFGGGTKVEIK

Variants of: B1
Assay: yeast display scFab, FACS + sequencing
Procedure, shortened: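 The non-specific binding call was based on sorted and sequenced yeast displaying a heavy-chain CDR mutant scFab library. Labelling used anti-Myc with biotinylated ovalbumin (260 μg/mL in PBSB, 3 h, room temperature) or soluble membrane proteins (130 μg/mL, 20 min on ice), and FACS collected the top 25% and bottom 10% of binders in two replicates. Positive meant present in ≥3 of 4 pooled positive samples and in no negatives, and negative meant the converse.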

| Variant | non-specific binding call |
| --- | --- |
| VTEEGSWV | no binding |
| VTEGGDVA | no binding |
| VTEGGDVY | no binding |
| ATGANAGD | no binding |
| YTGGDDGF | no binding |
| VTERGSLD | no binding |
| YTEGDDGA | no binding |
| YTEGDDGV | no binding |
| YTEGDDGD | no binding |
| VTGEADAS | no binding |
| ATGEGDWS | no binding |
| ATGEADAS | no binding |
| DTGEDDVY | no binding |
| VTGESDWY | no binding |
| YTERAAWA | no binding |
| DTGGDDGF | no binding |
| VTGEDDGD | no binding |
| VTGEDDGS | no binding |
| VTEEGSSV | no binding |
| DTERGSLV | no binding |
| YTEKTFSD | binds |
| FTGGAAGD | no binding |

| Variant | non-specific binding call |
| --- | --- |
| VTGEDDWV | no binding |
| VTGEDDWD | no binding |
| VTGEDDWY | no binding |
| STGEDDVY | no binding |
| VTEGDDVF | no binding |
| DTERDDAV | no binding |
| YTGATAGA | binds |
| YTEEGDWV | no binding |
| VTGANDWV | no binding |
| YTETGDSV | no binding |
| FTEEGAVD | no binding |
| DTEGDAGD | no binding |
| FTETGAGD | no binding |
| FTEGDSGY | no binding |
| YTGEGDGV | no binding |
| VTEGDAGA | no binding |
| VTEGDAGD | no binding |
| FTGEAAGD | no binding |
| VTGEDSGV | no binding |
| ATGEDDVY | no binding |
| VTGEDAVV | no binding |
| YTERGDAV | no binding |

| Variant | non-specific binding call |
| --- | --- |
| YTGEDDVY | no binding |
| VTGESAAV | no binding |
| VTEGGSVD | binds |
| STEGDAGA | no binding |
| VTGGDDGA | no binding |
| FTGEDDVY | no binding |
| YTERNFGV | binds |
| VTEGDSGV | no binding |
| YTGEGSWV | no binding |
| FTGGASGV chain 1 V111I | no binding |
| FTGEADAS | no binding |
| ATGANSLD | no binding |
| STEEGDWV | no binding |
| YTGGADAV | no binding |
| YTERGFGV | no binding |
| FTEEGDGA | no binding |
| FTEEGDGV | no binding |
| VTGEDSLD | no binding |
| VTGEDSLA | no binding |
| VTGEDSLV | no binding |
| VTGEGALV | no binding |
| FTGGDALA | no binding |

| Variant | non-specific binding call |
| --- | --- |
| DTGGDAGV | no binding |
| FTETGSVD | no binding |
| VTGEDSSD | no binding |
| VTERDDAV | no binding |
| DTEEGDVA | no binding |
| STEGGSVY | no binding |
| VTEEGDWV | no binding |
| ATGEGDGV | no binding |
| YTEGDDWY | no binding |
| ATGANAAV | no binding |
| VTGEDDAA | no binding |
| VTGEDDAV | no binding |
| VTGGDALA | no binding |
| DTGEADAS | no binding |
| YTEETDGF | binds |
| VTETGSLV | no binding |
| VTEGGALA | no binding |
| ATGGAALD | no binding |
| STGEADAS | no binding |
| VTGEDDVV | no binding |
| VTGEDDVD | no binding |
| VTGEDDVA | no binding |

| Variant | non-specific binding call |
| --- | --- |
| YTEKGVGV | binds |
| DTEEGDWV | no binding |
| DTEGGSAS | no binding |
| VTGEDAGD | no binding |
| VTGEDAGS | no binding |
| VTGEDAGA | no binding |
| YTGEADAS | no binding |
| VTERSALD | binds |
| VTETGDSV | no binding |
| FTETGFGA | binds |
| YTEGDFAV | no binding |
| ATGGDDGF | no binding |
| VTEENDGY | no binding |
| VTEGGDAA | no binding |
| STGGDDGA | no binding |
| FTEEGAGD | no binding |
| DTGANDWV | no binding |
| YTGEDAVA | no binding |
| ATGGAAGD | no binding |
| YTERGDVD | no binding |
| YTERGDVY | no binding |
